Tested on: MS2 coat protein
Assay: apparent KD of MS2 coat protein; designed switch direction (-1 OFF switch, 1 ON switch): -1; higher = weaker reporter binding
Summary of the method: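 The reported apparent KD is a per-design median over clusters, from curve fits of normalised cluster fluorescence. Protein titrations used SNAP-549-labelled MS2 coat protein, doubled from 0.7 or 1.5 nM to 3 µM, in Tris-HCl pH 7.5 buffer with KCl, MgCl2, BSA, DTT, tRNA and Tween-20, with no input, 200 uM small-molecule ligand, or an oligonucleotide input. The RNA switches were transcribed on Illumina chips by stalled E. coli RNA polymerase.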

[1] = Eterna round: R95, input ligand: microRNA oligo, concentration not stated
[2] = Eterna round: R95, input ligand: FMN 200 uM
[3] = Eterna round: R95, input ligand: none
[4] = input ligand: microRNA oligo, concentration not stated

Sequence | apparent KD of MS2 coat protein [1] | apparent KD of MS2 coat protein [2] | apparent KD of MS2 coat protein [3] | apparent KD of MS2 coat protein (input ligand: FMN 200 uM) | apparent KD of MS2 coat protein (input ligand: none) | apparent KD of MS2 coat protein [4]
UUUUAACAUGAGGAUCACCCAUGUGAGGAUAUCGAAAUUUAUAUUUAUAUUAAUUUAACGAGAAGGCACAUUUU [JMF 87] (puzzle: Exclusion 1) | 84.4 nM | – | – | – | – | –
AAAAUGCAAGGAUAUCGCGAUAAAUACAUGAGGAUCACCCAUGUGAUUACGUGGGCACGGCGAGAAGGUGCUAAAA [Amadius] (puzzle: Exclusion 5) | 26.1 nM | 119 nM | 33.8 nM | – | – | –
AAAAAGCGAGGAUAUGCAUAAGGACCCGGGAGGGAAGUCGAACAUGAGGAUCACCCAUGUAGAAGGCGCAAAAA [Exclss2-IV] (puzzle: Exclusion 2) | 11.5 nM | 16 nM | 15.4 nM | – | – | –
CCGCAUAAGCAGGAUAUCGUAUCGGAAACGAUACGAGAAGGGUUAACAUGAGGAUCACCCAUGUUCCUUAACGG [Fiskers Ex 6 - 30] (puzzle: Exclusion 6) | 17.5 nM | – | – | – | – | –
CGGGAGGAAGGAUAUACACGGCCUCCUAGAAUAAAUCCUGGACAUGAGGAUCACCCAUGUAGAAGGUCCACCGA [Tiuslala] (puzzle: Exclusion 2) | 17.3 nM | – | – | – | – | –
CCGCUGUGAGGAUAUUAGUAGUAGUCAGAAAAGACUAUUACUGAGAAGGCACAUGAGGAUCACCCAUGUCGCGG [Mat - Exclusion 4 - Eli Mod - D49] (Eterna round: R97, puzzle: Exclusion 4) | – | – | – | 39.7 nM | 28.8 nM | –
UUUUACAUAGGAUAUAGUUUCUUUUACAUGAGGAUCACCCAUGUCUCUCCUCUCUCUCUUCUAGAAGGAUGUUUCU [JR_E5_Sub012] (puzzle: Exclusion 5) | 86.1 nM | – | – | – | – | –
CAAAUCUGAGGAUAUCGAUUUUUGUACAUGAGGAUCACCCAUGUCCUUUUUAUUAAAUCCCGAGAAGGCAGUGUAU [JR_E5_Sub096] (puzzle: Exclusion 5) | 24.3 nM | – | – | – | – | –
GUAGAGUCAGGAUAUACGAGAUCGAAAGAUCUUUGAUCCUAACAUGAGGAUCACCCAUGUAGAAGGGACUCUAC [Omei mod 3 to Eli's favorate candidate (ch.parushev)] (Eterna round: R97, puzzle: Exclusion 2) | – | – | – | 698 nM | 58 nM | –
UCGUUUCGUGUAGGAUAUUGGCCUUCUCUGGGUCGAGAAGGACAUGAGGAUCACCCAUGUAUGUUAUUAUCACGCGUGGCGCAU [Design 83] (Eterna round: R96, puzzle: Exclusion NG 1) | – | – | – | 35.3 nM | 28.2 nM | 15.8 nM
AAUAAGCAAGGAUAUACGACGAAAAGCGUCAGUGGGCGAUGACAUGAGGAUCACCCAUGUAGAAGGUGCACAUC [Isragela] (puzzle: Exclusion 2) | 125 nM | 314 nM | 203 nM | – | – | –
GUACUAAAGCUUUGCUUUAGUCGUACAUGAGGAUCACCCAUGUAGGAUAUGGUAAGCAUAGCUUACUAGAAGGAUAGAGUGAUC [Mat - Exclusion NG 3 - Mod of JL - D66] (Eterna round: R96, puzzle: Exclusion NG 3) | – | – | – | 285 nM | 145 nM | 146 nM
UAAUACAAGUAGAGAUUCUACAUGAGGAUCACCCAUGUGCUCGUCUUAUAAAGUACUAUCACGAAAGUGAUAGUACA [Mat - Sensor v3 - turn-off var 1 - Eli Mod - D97] (puzzle: Sensor v3, turn-off variant 1) | 322 nM | 23 nM | 19.7 nM | – | – | –
GUAACAACUAGAGGAUAUCAGCACGUUUAGUGCUGAGAAGGCUAGAGUUACAUGAGGAUCACCCAUGUCUAGAGAUCAUUAAUU [ENG1/13-A2] (Eterna round: R96, puzzle: Exclusion NG 1) | – | – | – | 177 nM | 83.8 nM | 66.3 nM
UAAUACAAGUAGAGAUUCUACAUGAGGAUCACCCAUGUGCUCGUCUUAUAAAGUACUAUCACGAAAGUGAUAGUACA [Mat - Sensor v3 - turn-off var 1 - Eli Mod - D97] (Eterna round: R96, puzzle: Sensor v3, turn-off variant 1) | – | – | – | 22.1 nM | 22.4 nM | 124 nM
CUUGAAUAAGUGAGGAUAUACUGUUAGUAAUGAUUGUAGAAGGUACAUGAGGAUCACCCAUGUUUAUUCAUAAU [JR_BME4_Sub041] (puzzle: Brourd's mod of Exclusion 4) | 17.5 nM | – | – | – | – | –
UAUUCUGGAGGAUAUACAUGAGGAUCACCCAUGUAAAUUGUACAGAGCGGGAGUCUAUGUAGAAGGCUAGGACA [EX3 C.2] (Eterna round: R97, puzzle: Exclusion 3) | – | – | – | 60.8 nM | 19.1 nM | –
UAUUUAUAGCAAGGAUAUGAUUAUUAUUAUUUAUCAGAAGGUGCACAUGAGGAUCACCCAUGUUUUAUAUAUAAUAAUUUAAUU [Title] (Eterna round: R96, puzzle: Exclusion NG 1) | – | – | – | – | – | 82.5 nM

Sequence | apparent KD of MS2 coat protein [1] | apparent KD of MS2 coat protein [2] | apparent KD of MS2 coat protein [3] | apparent KD of MS2 coat protein (input ligand: FMN 200 uM) | apparent KD of MS2 coat protein (input ligand: none) | apparent KD of MS2 coat protein [4]
UUUUUCAUCUAUGGGAGUGACAUGAGGAUCACCCAUGUGUGUCUUGUUUUUUGUUCGUCUAAGACUUUCUGAUCAGU [JR_SV3TOV1_Sub032] (puzzle: Sensor v3, turn-off variant 1) | 313 nM | 128 nM | 160 nM | – | – | –
CUCGUGUAAGGAUAUACGAGUCACGGAAAUAAAACGUGAAGGUAGAAGGUACAUGAGGAUCACCCAUGUAAAAC [Mod of Anonveat 2 - Jieux - Exclusion 4] (Eterna round: R97, puzzle: Exclusion 4) | – | – | – | 209 nM | 29.8 nM | –
AUAAUUAAUCGAGGAUAUCAGCACGUUUAGUGCUGAGAAGGCGACAUGAGGAUCACCCAUGUGAUCAAUUAAUAUUAAUAUUAU [ENG1/11-C2] (Eterna round: R96, puzzle: Exclusion NG 1) | – | – | – | 898 nM | 369 nM | 230 nM
AAUAACAGAGGAUAUACUGUUUUAUGUGUUUAUUAUUUUGAACAUGAGGAUCACCCAUGUAGAAGGCUGAAUAA [JMF 21] (puzzle: Exclusion 2) | 22.2 nM | – | – | – | – | –
CGUACUGAAGUCAGGAUAUUGUCUCGGAUACGAAACAAGAAGGGACAUGAGGAUCACCCAUGUGGACAGUACGA [Malc #30 mod 6] (puzzle: Brourd's mod of Exclusion 4) | 44 nM | 38.3 nM | 36.7 nM | – | – | –
GGAGGAAGAGAGGAUAUGGAGGAGAGGAGAAGACCAGAAGGUUCAACAUGAGGAUCACCCAUGUAUGAUCCUCA [AK-MS2ROC-r4-exclusion6-1.1] (Eterna round: R97, puzzle: Exclusion 6) | – | – | – | 789 nM | 694 nM | –
AUGAGGUUAGGAUAUACAUGAGGAUCACCCAUGUUGAAAGGUUAGAUAGGAGAAGAUAGUAGAAGGAACAAAGA [JR_Exclu3_Sub053] (puzzle: Exclusion 3) | 37.2 nM | 31.8 nM | 43.1 nM | – | – | –
CCGAGGUAGCGGUCCUAUGACAUGAGGAUCACCCAUGUACCUCGCUACGAGCUUUUUGCUCGUCUUAUAAUUCUCGG [JL Atriat mod 1] (puzzle: Sensor v3, turn-off variant 1) | 229 nM | 55.2 nM | 73.6 nM | – | – | –
AUGCCACAUGAGGAUCACCCAUGUGAGGAUAUGGCCUGUUUGGCGUGUGCUGGCUCUGUCAGAAGGCGCGUGGG [salish99_ex1_r4_036] (Eterna round: R97, puzzle: Exclusion 1) | – | – | – | 33.9 nM | 25.7 nM | –
GCCUCACUUGAGGAUCACCCAAGUCAGGAUAUUCACUGAGCUGCAUAACAACUCGGCCGAAGAAGGGAUUCGGG [Edlacebe] (Eterna round: R97, puzzle: Exclusion 1) | – | – | – | 41.3 nM | 84.9 nM | –
GCCAGAGCAGGAUAUUCAAUAAUCCACAUGAGGAUCACCCAUGUCCUGCGAAAGCAGGAGGGAGAAGGGCUCUGGC [Mat - Exclusion 5 - Eli mod - D89] (puzzle: Exclusion 5) | 75.7 nM | 37.7 nM | 81.9 nM | – | – | –
GUCCAACAUGAGGAUCACCCAUGUCAGGAUAUGCGAAUUUCAUCAAAAGAUGAAAUUUGCAGAAGGGACUGGAC [Omei Ex1 A29] (Eterna round: R97, puzzle: Exclusion 1) | – | – | – | 44 nM | 23.3 nM | –
UAGAAGCUCAGGGAGUGAGACAUGAGGAUCACCCAUGUGGUGGUAGGGAACAAGCUUUUUGCACGUACUUAUGAGGA [JR_SV3TOV1_Sub006] (puzzle: Sensor v3, turn-off variant 1) | 134 nM | 367 nM | 189 nM | – | – | –
UAGGUACAUGAGGAUCACCCAUGUGAGGAUAUAGUUGAAGAUUGCGAGAGGGAGAGGACUAGAAGGCACAGUGG [JR_Exclu1_Sub037] (puzzle: Exclusion 1) | 40.9 nM | – | – | – | – | –
AUAAUACAUGUAGGAUAUCUGCACGUGUAGUGCAGAGAAGGACAUGAGGAUCACCCAUGUAAUUAAGAUCAAUUAUUAAAUUAU [ENG1/3-D3] (Eterna round: R96, puzzle: Exclusion NG 1) | – | – | – | 228 nM | 75.6 nM | 53.6 nM
AUAACCGAAGGAUAUAGUCGUGAGGACAUGAGGAUCACCCAUGUGUUUCAGAUAGUCCCACUAGAAGGUCGGCGUC [Eternabot (L2) Solution 29] (Eterna round: R97, puzzle: Exclusion 5) | – | – | – | 110 nM | 67.2 nM | –
GAUUAUGCGAGCUUUAGGGACAUGAGGAUCACCCAUGUUCGUCUUAUUGAUCUGGGUACGCUAACAUACCUAAAUCU [JMF 42] (puzzle: Sensor v3, turn-off variant 1) | 89.2 nM | 82.2 nM | 96.7 nM | – | – | –
